According to patent publication US6469153 (TRUSTEES OF COLUMBIA UNIVERSITY IN THE CITY OF NEW YORK, dated 2002):
Read-outs that look alike come from different tables or passages of the source.

T1: Envelope protein (TM in the context of the whole envelope protein) on intact ecotropic N2 virus (Moloney murine leukemia virus, UniProt P03385 34-649, limits assumed)
T1 construct: The target stands on virus particles; also called intact virus; ecotropic virus
T1 sequence (looked up): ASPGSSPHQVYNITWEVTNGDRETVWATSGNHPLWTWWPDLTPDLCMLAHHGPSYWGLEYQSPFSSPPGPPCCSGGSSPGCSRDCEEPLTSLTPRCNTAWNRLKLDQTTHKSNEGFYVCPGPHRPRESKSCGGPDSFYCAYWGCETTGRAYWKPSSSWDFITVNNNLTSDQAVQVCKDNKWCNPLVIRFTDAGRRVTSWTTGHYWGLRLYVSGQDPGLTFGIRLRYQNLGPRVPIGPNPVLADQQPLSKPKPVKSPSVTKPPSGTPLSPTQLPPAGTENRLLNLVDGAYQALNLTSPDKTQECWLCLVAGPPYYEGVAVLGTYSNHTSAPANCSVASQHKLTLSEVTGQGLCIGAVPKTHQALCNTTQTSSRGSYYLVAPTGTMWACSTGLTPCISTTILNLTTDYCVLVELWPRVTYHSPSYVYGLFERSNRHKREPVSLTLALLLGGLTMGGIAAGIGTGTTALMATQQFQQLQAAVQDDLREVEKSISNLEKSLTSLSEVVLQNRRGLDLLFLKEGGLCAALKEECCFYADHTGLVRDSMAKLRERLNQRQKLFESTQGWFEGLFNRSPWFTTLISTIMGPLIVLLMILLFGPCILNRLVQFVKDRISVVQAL

B1: GST-EIP-1 (other)
chain: MATGADVRDILELGGPEGDAASGTISKKDIINPDKKKSKKSSETLTFKRPEGMHREVYALLYSDKKDAPPLLPSDTGRGHRTVKAKLGSKKVRPWKWMPFTNPARKDGAMFFHWRRAAEEGKDYPFARFNKTVQVPVYSEQEYQLYLHDDAWTKAETDHLFDLSRRFDLRFVVIHDRYDHQQFKKRSVEDLKERYYHICAKLANVRAVPGTDLKIPVFDAGHERRRKEQLERLYNRTPEQVAEEEYLLQELRKIEARKKEEKRSQDLQKLITAADTTAEQRRTERKAPKKKLPQKKEAEKPAVPETAGIKFPDFKSAGVTLRSQRMKLPSSVGQKKIKALEQMLLELGVELSPTPTEELVHMFNELRSDLVLLYELKQACANCEYELQMLRHRHEALARAGVLGAPAAAAVGPTPASAEPTVSESGLGLDPTKDTIIDVVGAPLTPNSRKRRESASSSSSVKKAKKP
notes: It was used on glutathione agarose beads or eluted as soluble protein; also called EIP-1 fused with glutathione S-transferase; not shown: glutathione S-transferase (GST)

How the values were obtained:
[1] = target: Envelope protein (TM) on amphotropic N2 virus (amphotropic murine retrovirus); test: cell-based or functional assay
[2] = target: Envelope protein (TM) on amphotropic N2 virus (amphotropic murine retrovirus); test: cell-based or functional assay; remark: listed apart in the source
[3] = target: Envelope protein (TM in the context of the whole envelope protein) on intact ecotropic N2 virus (Moloney murine leukemia virus) (UniProt P03385); test: cell-based or functional assay
[4] = target: T1, Envelope protein (TM in the context of …); test: depletion of N2 virus by GST-EIP-1 beads; titer of remaining virus
Procedure: EIP-1 to EIP-5 have been examined using this assay to directly measure the binding of EIPs to the intact virus. In this binding assay, virus is mixed with GST-EIP-agarose beads and incubated for 2 hours. After incubation, the mixtures are centrifuged, and the supernatants are used to transduce fresh NIH3T3 cells. After two days, cells are split into G418-containing medium. Ten to twelve days later, colonies are counted. If the virus binds to EIPs, virus is retained on agarose beads leading to a reduction in virus titer in supernatant. […] In control samples, virus was incubated with GST-agarose beads or beads alone, and no change in virus titer was observed (Table 2).
Whether EIP-1 could interact with TM on the native virion particle was tested. GST-EIP-1 beads were incubated with preparations of a virus vector (N2) containing the neoR gene and pelleted, and the titer of the remaining virus was determined to test for depletion of infectivity from the stock. Whereas beads alone, beads containing GST, or beads with control GST fusions had no effect on the titer, beads with GST-EIP-1 could consistently reduce the titer approximately 4-fold.

[5] = target: T1, Envelope protein (TM in the context of …); test: cell-based or functional assay

Molecule	Fold Increase (amphotropic N2 virus on NIH3T3 cells) [2] [fold]	Neo^r Colonies, Amphotropic N2 virus 5 µl (1:10), NIH3T3 cells [2] [colonies]	Neo^r Colonies, Amphotropic N2 virus 5 µl (1:25), NIH3T3 cells [2] [colonies]	Fold Increase (amphotropic N2 virus on NIH3T3 cells) [1] [fold]	Neo^r Colonies, 1:1 (amphotropic N2 virus on NIH3T3 cells) [1] [colonies]	Neo^r Colonies, 1:5 (amphotropic N2 virus on NIH3T3 cells) [1] [colonies]	Fold Increase (ecotropic N2 virus on NIH3T3 cells) [3] [fold]	Neo^r Colonies, 1:1 (ecotropic N2 virus on NIH3T3 cells) [3] [colonies]	Neo^r Colonies, 1:5 (ecotropic N2 virus on NIH3T3 cells) [3] [colonies]	other results
GST-EIP-1 (from UniProt Q9JI44 1-468)	–	–	–	–	–	–	–	–	–	increase of titer of amphotropic viruses titered on human cells [1]: 5 to 8 fold
GST-EIP-1A (from UniProt Q9JI44 1-468)	8	854	136	7	854	136	–	–	–	–
GST-EIP-2 (from UniProt P08515 1-218)	–	–	–	–	–	–	1	69	24	CFU/2 ul virus (Neo^r colonies after incubation of virus with purified protein, 1 µg/ml, 37° C., 1 h) [3]: 24 CFU; CFU/10 ul virus (Neo^r colonies after incubation of virus with purified protein, 1 µg/ml, 37° C., 1 h) [3]: 69 CFU; Ratio (enhancement of virus infectivity) [3]: 1
GST-EIP-1B (from UniProt Q9JI44 1-468)	6	403	102	5	403	102	30	> 1000	353	Fold Increase (amphotropic N2 virus on Hela cells) [1]: 6 fold; Neo^r Colonies, Amphotropic N2 virus 5 µl (1:25), Hela cells [1]: 594 colonies
B1	–	–	–	–	–	–	–	–	–	fold reduction of the titer of remaining virus [4]: ~4 fold; Ratio (enhancement of virus infectivity) [5]: 30 ratio
